{"source": "patent US10337022B2", "about": "“Methods of increasing root biomass in plants” (Agresearch Limited, priority 2014, dated 2019)", "molecules": {"B1": {"name": "Arabidopsis PPD: Arabidopsis thaliana PEAPOD 1 protein, At4g14713, SEQ ID NO: 1 (protein, listed as Arabidopsis thaliana)", "chain": "MDVGVSPAKSILAKPLKLLTEEDISQLTREDCRKFLKDKGMRRPSWNKSQAIQQVLSLKALYEPGDDSGAGIFRKILVSQPVNPPRVTTTLIEPSNELEACGRVSYPEDNGACHRMDSPRSAEFSGGSGHFVSEKDGHKTTISPRSPAETSELVGQMTIFYSGKVNVYDGIPPEKARSIMHFAANPIDLPENGIFASSRMISKLISKEKMMELPQKGLEKANSSRDSGMEGQANRKVSLQRYREKRKDRKFSKAKKCPGVASSSLEMFLNCQPRMKAAYSQNLGCTGSPLHSQSPESQTKSPNLSVDLNSEGI"}}, "key": {"BZR1": {"biological_target": "T1, BZR1 (Arabidopsis thaliana, UniProt Q8S307)", "T1 construct": "expressed in transfected cells; host or cells: Nicotiana benthamiana leaves (Agrobacterium infiltration)", "T1 sequence (Q8S307 1-336)": "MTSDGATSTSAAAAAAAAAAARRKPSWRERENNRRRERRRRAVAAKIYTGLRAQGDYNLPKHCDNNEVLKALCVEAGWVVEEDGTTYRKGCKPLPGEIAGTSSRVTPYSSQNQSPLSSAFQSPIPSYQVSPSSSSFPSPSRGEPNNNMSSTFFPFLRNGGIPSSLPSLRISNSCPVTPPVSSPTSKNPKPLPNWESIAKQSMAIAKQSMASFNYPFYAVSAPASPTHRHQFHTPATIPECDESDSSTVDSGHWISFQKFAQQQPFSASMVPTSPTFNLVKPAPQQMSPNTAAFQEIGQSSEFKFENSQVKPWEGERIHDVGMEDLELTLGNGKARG", "test": "BiFC interaction with BZR1 in Nicotiana benthamiana leaves", "type": "cell-based", "from_the_text": "(§1) The binary BiFC-Gateway YFP vectors pDEST-VYNE(R)^GW (Venus aa 1-173) and pDEST-VYCE(R)^GW (Venus aa 156-239) with N-terminal fusions, were used to construct the following vectors; pDESTnYFP-BZR1, pDESTnYFP-NINJA, pDESTnYFP-PPD1, pDESTcYFP-BZR1, pDESTcYFP-PPD1, pDESTcYFP-PPD1Δppd, pDESTcYFP-PPD1Δtify and pDESTcYFP-PPD1Δjas*. […] Plasmids for co-immunoprecipitation: A synthesised DNA construct encoding PPD1 with a 3×c-myc C-terminal fusion was sub-cloned into pRSh1 to produce pRSh1-PPD1-3×c-myc, while the NINJA cDNA sequence was sub-cloned into pB7FWG2,0 (Karimi et al 2002, Trends Plant Sci. 7, 193-195) to construct pB7FWG2-NINJA-GFP.\n(§2) For infiltration Agrobacterium tumefaciens GV3101 strains containing the binary vectors were re-suspended from plates and prepared for transformation as described for the LUC assay. All YFP and expression strains were mixed in ratios of 1:1 (vol/vol) with the addition of strain P19 at 1/10th volume. Five leaf discs were sampled from each infiltrated leaf after 40 h. Two hours prior to sampling for microscopic fluorescence observations leaves were infiltrated with a 1 μg/ml DAPI solution to stain nuclei. YFP fluorescence and DAPI staining was detected using an Olympus Fluoview FV10i confocal laser scanning microscope. Each experiment was repeated twice."}, "DELLA (RGA1)": {"biological_target": "T2, DELLA (RGA1) (Arabidopsis thaliana, UniProt Q9SLH3)", "T2 construct": "expressed in transfected cells; host or cells: yeast strain MaV203", "T2 sequence (Q9SLH3 with tags, fused parts or gaps)": "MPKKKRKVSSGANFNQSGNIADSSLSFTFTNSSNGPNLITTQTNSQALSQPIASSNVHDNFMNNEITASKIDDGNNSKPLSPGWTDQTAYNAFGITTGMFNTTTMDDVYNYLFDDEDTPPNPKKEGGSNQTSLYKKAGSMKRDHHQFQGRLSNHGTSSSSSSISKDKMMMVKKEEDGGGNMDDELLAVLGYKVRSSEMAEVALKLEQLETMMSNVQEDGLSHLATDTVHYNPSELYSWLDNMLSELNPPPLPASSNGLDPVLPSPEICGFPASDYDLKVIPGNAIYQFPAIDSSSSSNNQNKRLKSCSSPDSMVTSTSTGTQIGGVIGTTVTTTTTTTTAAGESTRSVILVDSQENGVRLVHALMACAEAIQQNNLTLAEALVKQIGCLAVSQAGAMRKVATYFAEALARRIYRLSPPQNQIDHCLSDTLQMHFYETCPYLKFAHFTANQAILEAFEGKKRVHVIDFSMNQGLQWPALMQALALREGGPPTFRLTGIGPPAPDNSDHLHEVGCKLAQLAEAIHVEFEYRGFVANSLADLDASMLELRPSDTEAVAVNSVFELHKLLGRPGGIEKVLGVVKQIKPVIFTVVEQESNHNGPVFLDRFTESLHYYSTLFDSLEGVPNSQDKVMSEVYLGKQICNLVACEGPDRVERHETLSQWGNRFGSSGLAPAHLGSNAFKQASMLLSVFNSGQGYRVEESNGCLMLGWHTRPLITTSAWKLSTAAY", "test": "Yeast two-hybrid (Y2H) interaction with DELLA (RGA1)", "type": "binding", "details": "PPD1-DBD as bait, selective medium with 15 mM 3AT", "from_the_text": "The ProQuest two-hybrid system (Invitrogen) was used to analyse interactions between PPD1, and RGA1. Full length coding sequences of PPD1, together with truncation or deletion derivatives of PPD1 (PPD1Δppd, PPD1Δtify, and PPD1Δjas*) (FIG. 4), were Gateway sub-cloned into pDEST32 (N-terminal GAL4DBD) or pDEST22 (N-terminal GAL4AD). When translated these generated the following peptide sequences od SEQ ID NO: 58, 68, 69, 70, 71, 72, which are PPD1-DBD, RGA1, RGA1-AD, PPD1-ppd-DBD, PPD1-tify-DBD, PP1-jas*-DBD respectively.\nCombinations of bait and prey constructs were used to co-transform yeast strain MaV203 (Invitrogen), with selection on synthetic dropout (SD) SD/-Leu/-Trp agar plates. Transformed strains were tested for interactions using 10 μl droplets of 1 in 10 and 1 in 100 dilutions on SD/-Leu/-Trp/-His plates with different concentrations of 3-aminotriazol (3-AT) (Sigma). The PPD1-RGA1 interaction was tested with PPD1-DBD used as bait. Transformed yeast was spotted as a ten-fold dilution on control medium (−2) or selective medium (−3) with 15 mM 3AT. Controls were empty vectors, DBD, GAL4 DNA binding domain, AD, GAL4 activation domain (FIG. 4)."}, "NINJA": {"biological_target": "T3, NINJA (Arabidopsis thaliana, UniProt Q9SV55)", "T3 construct": "expressed in transfected cells; host or cells: Nicotiana benthamiana leaves (Agrobacterium infiltration)", "T3 sequence (Q9SV55 with tags, fused parts or gaps)": "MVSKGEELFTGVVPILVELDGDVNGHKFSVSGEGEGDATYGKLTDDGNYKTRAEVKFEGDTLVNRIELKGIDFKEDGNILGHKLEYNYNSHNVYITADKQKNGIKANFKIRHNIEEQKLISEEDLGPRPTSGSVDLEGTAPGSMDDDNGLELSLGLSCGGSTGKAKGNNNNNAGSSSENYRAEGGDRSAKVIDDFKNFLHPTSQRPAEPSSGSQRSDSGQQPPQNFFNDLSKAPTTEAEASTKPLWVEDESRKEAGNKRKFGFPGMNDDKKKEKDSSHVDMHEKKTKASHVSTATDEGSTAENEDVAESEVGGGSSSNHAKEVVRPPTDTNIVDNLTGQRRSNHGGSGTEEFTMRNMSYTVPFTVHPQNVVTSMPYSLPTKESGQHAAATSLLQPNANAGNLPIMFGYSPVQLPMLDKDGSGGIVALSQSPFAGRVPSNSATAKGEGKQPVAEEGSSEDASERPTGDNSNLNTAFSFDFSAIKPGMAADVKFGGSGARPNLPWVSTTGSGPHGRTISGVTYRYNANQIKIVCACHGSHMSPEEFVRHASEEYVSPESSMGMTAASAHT", "test": "BiFC interaction with NINJA in Nicotiana benthamiana leaves", "type": "cell-based", "details": "in planta", "from_the_text": "as §1, §2"}, "[1]": {"tested_on": "alfalfa (variety USD5) plants", "test": "Root biomass analysis of alfalfa transformants", "type": "in vivo", "details": "constitutive promoter, approximately 6 weeks in growth cabinet", "description": "Cuttings of approximately equal size were taken from WT and alfalfa (variety USD5) plants transformed with Arabidopsis PPD under a constitutive promoter. Cuttings were planted into plastic grow bags containing potting mix. […] The increase in root biomass was quantified by washing the roots under running water (these were photographed, FIG. 12) then the attached above ground portion (leaves and stems) was removed and the roots dried at 65° C. for 48 hr then weighed Table 5."}}}
{"molecule": "B1", "values": [{"measurement": "BiFC interaction with BZR1", "setting": "BZR1; fully expanded leaves, co-expression of NINJA", "value": "restored"}, {"measurement": "BiFC interaction with BZR1", "setting": "BZR1; pavement cells of immature Nicotiana benthamiana leaves", "value": "appears to interact with BZR1 in the nucleus"}, {"measurement": "Y2H binding to DELLA (RGA1)", "setting": "DELLA (RGA1)", "value": "can directly bind"}, {"measurement": "BiFC interaction with NINJA", "setting": "NINJA", "value": "interacted with NINJA in plants"}, {"measurement": "root growth beyond the grow bag compared to WT plants", "setting": "[1]", "value": "increase in root biomass/growth/length/branching"}]}
